The assay deals with recombinant Plasmodium falciparum circumsporozoite protein (CSP) (Plasmodium falciparum) (UniProt P19597). As to the kind of experiment: cell-based or functional assay.

The text below walks through data of patent US20250296995A1.

recombinant Plasmodium falciparum circumsporozoite protein (CSP) (Plasmodium falciparum), sequence (P19597 21-375 limits assumed): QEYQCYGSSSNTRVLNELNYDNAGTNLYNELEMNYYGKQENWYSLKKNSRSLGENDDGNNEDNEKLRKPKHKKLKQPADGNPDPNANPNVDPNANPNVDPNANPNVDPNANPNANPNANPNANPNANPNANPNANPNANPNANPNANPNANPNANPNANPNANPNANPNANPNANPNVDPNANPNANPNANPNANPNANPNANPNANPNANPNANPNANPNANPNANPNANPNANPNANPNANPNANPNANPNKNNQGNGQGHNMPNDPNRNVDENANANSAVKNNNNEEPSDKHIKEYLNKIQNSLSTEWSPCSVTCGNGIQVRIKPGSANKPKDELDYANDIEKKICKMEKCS

B1: AB-000338 ALE LS (antibody, human IgG1, kappa, V domains shown)
VH: QVQLVESGGGVVQPGRSLRLSCAASGFSFSTYGMHWIRQVPGKGLEWVAIIWHDGSKEFYADSVKGRFTISRDNSKKKLYLQMNSLRAEDTAIYYCVKDDFDSSGHSYFHYWGQGTLVTVSS
VL: GVVMTQSPLSLPVTLGQPASISCRSSQSLVHSDGNTYVHWFQQRPGQSPRRLIYKVSNRDSGVPDRFSGSGSGTDFTLKISRVEAEDVGVYYCMQGTQWWTFGQGTKVEIKR
With B1, the Geo Mean EC50 (ug/ml), ADNKA, Donor 1 turned out to be 0.0035 µg/mL; the Geo Mean EC50 (ug/ml), ADNKA, Donor 2 was determined as 0.0037 µg/mL; the Geo Mean EC50 (ug/ml), ADNKA, Donor 3 was 0.0802 µg/mL; the Geo Mean EC50 (ug/ml), ADNKA, Donor 4 was found to be 0.0214 µg/mL. For the same molecule, the GeoMean EC50 (M), ADCP is 1.18e-11 M; the GeoMean EC50 (M), ADCP repeat, n=4 came out at 6.55e-12 M; the Mean EC50 (pM), ADCP was determined as 11.8 pM; the Mean EC50 (pM), ADCP repeat, n=4 was 6.6 pM. Besides, the Mean pEC50, ADCP amounted to 10.9 and the Mean pEC50, ADCP repeat, n=4 worked out at 11.2.

B2: AB-000338 LS (antibody, V domains shown)
VH: QVQLVESGGGVVQPGRSLRLSCAASGFSFSTYGMHWIRQVPGKGLEWVAIIWHDGSKEFYADSVKGRFTISRDNSKKKLYLQMNSLRAEDTAIYYCVKDDFDSSGHSYFHYWGQGTLVTVSS
VL: GVVMTQSPLSLPVTLGQPASISCRSSQSLVHSDGNTYVHWFQQRPGQSPRRLIYKVSNRDSGVPDRFSGSGSGTDFTLKISRVEAEDVGVYYCMQGTQWWTFGQGTKVEIK
B2: the Geo Mean EC50 (ug/ml), ADNKA, Donor 1 came out at 0.0301 µg/mL; the Geo Mean EC50 (ug/ml), ADNKA, Donor 2 came out at 0.238 µg/mL; the Geo Mean EC50 (ug/ml), ADNKA, Donor 3 is 0.171 µg/mL; the Geo Mean EC50 (ug/ml), ADNKA, Donor 4 is 0.0887 µg/mL. Besides, the GeoMean EC50 (M), ADCP turned out to be 9.19e-12 M; the GeoMean EC50 (M), ADCP repeat, n=4 came out at 1.08e-11 M; the Mean EC50 (pM), ADCP was determined as 9.2 pM; the Mean EC50 (pM), ADCP repeat, n=4 is 10.8 pM. In addition, the Mean pEC50, ADCP turned out to be 11 and the Mean pEC50, ADCP repeat, n=4 came out at 11.

B3: AB-000338 DEA FV LS (antibody, V domains shown)
VH: QVQLVESGGGVVQPGRSLRLSCAASGFSFSTYGMHWIRQVPGKGLEWVAIIWHDGSKEFYADSVKGRFTISRDNSKKKLYLQMNSLRAEDTAIYYCVKDDFDSSGHSYFHYWGQGTLVTVSS
VL: GVVMTQSPLSLPVTLGQPASISCRSSQSLVHSDGNTYVHWFQQRPGQSPRRLIYKVSNRDSGVPDRFSGSGSGTDFTLKISRVEAEDVGVYYCMQGTQWWTFGQGTKVEIK
For the molecule B3, the Geo Mean EC50 (ug/ml), ADNKA, Donor 1 is 0.0087 µg/mL; the Geo Mean EC50 (ug/ml), ADNKA, Donor 2 came out at 0.0057 µg/mL; the Geo Mean EC50 (ug/ml), ADNKA, Donor 3 is 0.0272 µg/mL; the Geo Mean EC50 (ug/ml), ADNKA, Donor 4 is 0.0067 µg/mL. The GeoMean EC50 (M), ADCP was determined as 7.21e-12 M; the Mean EC50 (pM), ADCP is 7.2 pM; the Mean pEC50, ADCP stood at 11.1.
